Experimental data from patent US8415393B2, “Anti-bacterial drug targeting of genome maintenance interfaces” (Wisconsin Alumni Research Foundation, priority 2007, dated 2013).
Positions count from the first letter of the chain named. Where no end group is shown, it is not given here. fluorescein = fluorescein moiety attached to the N-terminus of the peptide (N-terminal fluorescein label)

Assays:
Experiment in all cases: fluorescence anisotropy equilibrium binding (Kd,app), ExoI variant titrated into fluorescein-labeled peptide
ExoI Arg316Ala variant = molecular target: T1, ExoI Arg316Ala variant (Escherichia coli, UniProt P04995 1-475)
T1 construct: residue flanks peptide A; also called R316A; Arg316 variant
T1 sequence: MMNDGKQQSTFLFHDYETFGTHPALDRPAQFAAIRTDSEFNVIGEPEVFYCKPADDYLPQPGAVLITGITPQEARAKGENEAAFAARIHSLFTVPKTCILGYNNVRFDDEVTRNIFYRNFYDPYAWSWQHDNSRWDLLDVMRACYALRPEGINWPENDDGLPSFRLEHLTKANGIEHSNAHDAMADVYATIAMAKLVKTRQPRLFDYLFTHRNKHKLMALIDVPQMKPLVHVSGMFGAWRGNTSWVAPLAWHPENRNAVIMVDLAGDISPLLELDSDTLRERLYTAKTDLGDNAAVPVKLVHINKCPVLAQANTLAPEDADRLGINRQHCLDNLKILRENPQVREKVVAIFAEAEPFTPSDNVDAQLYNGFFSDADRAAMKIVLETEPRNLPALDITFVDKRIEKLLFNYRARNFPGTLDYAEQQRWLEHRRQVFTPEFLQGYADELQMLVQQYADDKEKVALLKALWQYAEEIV

ExoI Gln452Ala variant = molecular target: T2, ExoI Gln452Ala variant (Escherichia coli, UniProt P04995 1-475)
T2 construct: helical domain residue; also called Q452A; Gln452 variant
T2 sequence: T1 sequence with A316R, Q452A

ExoI Glu318Ala variant = molecular target: T3, ExoI Glu318Ala variant (Escherichia coli, UniProt P04995 1-475)
T3 construct: also called E318A; Glu318 variant
T3 sequence: T1 sequence with A316R, E318A

ExoI Arg338Ala variant = molecular target: T4, ExoI Arg338Ala variant (Escherichia coli, UniProt P04995 1-475)
T4 construct: basic ridge residue; also called R338A; Arg338 variant
T4 sequence: T1 sequence with A316R, R338A

ExoI Asp319Ala variant = molecular target: T5, ExoI Asp319Ala variant (Escherichia coli, UniProt P04995 1-475)
T5 construct: also called D319A; Asp319 variant
T5 sequence: T1 sequence with A316R, D319A

B1: fluorescein-labeled SSB C-terminal peptide (fluorescein-WMDFDDDIPF) (peptide)
peptide: fluorescein-WMDFDDDIPF
notes: also called F-SSB-Ct; F-WT
ExoI Arg316Ala variant
  Kd: > 1000 nM
ExoI Gln452Ala variant
  Kd: 212 nM
ExoI Glu318Ala variant
  Kd: 80 nM
ExoI Arg338Ala variant
  Kd: 398 nM
ExoI Asp319Ala variant
  Kd: 299 nM
